Data as given in the nanobody polyreactivity screen of Harvey et al. (2022).

Assay: yeast display, Sf9 membrane polyspecificity reagent, FACS + sequencing; frameworks hold sequencing errors
Procedure, shortened: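 Genes from sorted yeast were amplified by colony PCR, read by MiSeq 2 × 250 sequencing and filtered on CDR length. These cells carried a synthetic nanobody library in Saccharomyces cerevisiae BJ5465 and were sorted by FACS into low and high (top ~1%) gates on anti-HA and streptavidin fluorescence. Polyreactivity is labelled according to the gate of origin.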

Sequence | polyreactivity (PSR sort gate)
QVQLVESGGGLVQAGGSLRLSCAPSGFIYSKYVIGWNRPAPGKERELVAAITRSGSSTYYADSVKGRFTISRDNAKNTDYLQMNSLKPEDTAVYYCAADGGYYDDDYWGQGTQVTVSS | high polyreactivity
QVQLVESGGGLVQAGGSLRLSCAPSGGTFYANDMGWYRQAPGKERELVATISKSGGSTYYAESVKRPFTISRDNAKNTVYCQMNSLKPEVTAVYYCAARTTYLYGMYYWGQGTQVTVSS | low polyreactivity
QVQLVESGGGLVQAGGSLRLSCAPSGIIFYYYAMGWYRQAPGKERELVAAITGTGSRTYYADSVKGRFTISRDNAKNTVYLQMNSLKPEDTAVYYCNARSFATGSKVPARGYWGQGTQVTVSS | high polyreactivity
QVQLVESGGGLVQAGGSLRLSCAPSGITFLHYAMGWYRQAPGKERELVAAITRGGITYYADSVKGRFTISRDNAKNSVYLLMNSLKPEDTAVYYCNALGFGSNYDYWGQGTQVTVSS | high polyreactivity
QVQLVESGGGLVQAGGSLRLSCAPSGITFVKNVMGWYRQAPGKEREFVAAISTIGARTYYADSVKGRFTISRDNAKNTVYLQMNSLIPEDTAVYYCNAYKSGYGQEYDYWGQGTQVTVSS | high polyreactivity
QVQLVESGGGLVQAGGSLRLSCAPSGLTFSNYAMGWYRQAPCKERELVAGISSSGGTTYYADSVKGRFTISRDNAKNTVFLQMNSLKPEDTAVYYCATRRHYGSFWYDYWGQGTQVTVSS | high polyreactivity
QVQLVESGGGLVQAGGSLRLSCAPSGNIFGYYVMAWYRQAPGTERELVAAITWSAGTTNYADSVKGRFTISRDNAKNTVYLQMNSLKPEDTAVYYFAVTWWYQDYDLTWYLYDYWGQGTEVTVSS | low polyreactivity
QVQLVESGGGLVQAGGSLRLSCAPSGRIFGTYAMGWYRQAPGKERELVASIRSRGGRTYYADSVKGRFTISRDNAKNTVYLQMNSLKPEDTAVYYCAADVGVYYYSFYYWGQGTQVTVSS | high polyreactivity
QVQLVESGGGLVQAGGSLRLSCAPSGRIFRYYAMGWYRQAPGKERELVATIRSGGSTNYADSVKGRFTISRDNEKNTVYLQMNSLKPEDTAVYYCAATGGILSTYDYWGQVTQVTVSS | high polyreactivity
QVQLVESGGGLVQAGGSLRLSCAPSGRIFSYNTMGWYRQAAGKERELVAAISSSGGSTYYADSVKGRFTISRDNAKNTFYLQMNSLKPEDTALYYCNAVGRFSTRREYWGQGTQVTVSS | high polyreactivity
QVQLVESGGGLVQAGGSLRLSCAPSGRIFYPYAMGWYRQAPGKERELVAAISSRGDSTYYADSVKGRFTISRDNAKNTVYLQMNSLKPEDSAVYYCAAVYGSFPTRLYYWGQGTQVTVSS | high polyreactivity
QVQLVESGGGLVQAGGSLRLSCAPSGRNFWYYGMVWYRPAPGRERELVAAISRSGGRTSYADSVKGRFTISRDNAKNTVYLQMNSLKPEDTAVYYCATDGYYRYGYWGQGTQVTVSS | high polyreactivity
QVQLVESGGGLVQAGGSLRLSCAPSGRNYDRNAMGWYRQAPGKERELVARIDPGDDTNYADSVKGRFTISRDNAKNTVYLQMNSRKPEDTAVYDCASDPDYFLYRTAYYEFDYWGQGTQVTVSS | low polyreactivity
QVQLVESGGGLVQAGGSLRLSCAPSGRTFRTNTMGWYRQAPGKESELVAAINWRGGSTYYADSVKGRFTISRDNAKNTVYLQMNSLKPEDTAVYYCNAQQGRYKYSGRYDYWGQGTQVTVSS | low polyreactivity
QVQLVESGGGLVQAGGSLRLSCAPSGRTFSENAMGWYRQAPGKERELVAAISGSGGRTYYADSVMGRFTISRDNAKNSVFLQMNSLKPEVTAVYYCAKVTRYGSTYDYWGQGTQVTVSS | high polyreactivity
QVQLVESGGGLVQAGGSLRLSCAPSGSIFGVYAMGWYRQAPGKERELVAAISSRGSSTYYADSVKGRFTISRDNAKNTVYLQMNSLKPEDTAVYYCAARPGIRSYPPGYGYWGQGTQVTVSS | high polyreactivity
QVQLVESGGGLVQAGGSLRLSCAPSGSIFNYNIGSYRQAPVKERELVAAVSTNYADSVKGRFTISRDNAKNTVYIQMNSLKPADSAVYYCGVTPEKSCDEYDYWGQGTQVTVSS | low polyreactivity
QVQLVESGGGLVQAGGSLRLSCAPSGSIFPYYAMGWYRQAPGKERELVAAISGSDGTTYYADSVKGRFTISRDNAKNTVYLQMNSLKPEDTAVYYCAVELPELYYYFAYEYWGQGTQVTVSS | high polyreactivity
QVQLVESGGGLVQAGGSLRLSCAPSGSIFVKNAMGWYRQAPGKERELVAFITIRTATTYYADSVKGRFTISRDNAKNTVYLQMNSLKPEDTAVYYCAAAKRQRGYLQREGNYWGQGTQVTVSS | low polyreactivity
QVQLVESGGGLVQAGGSLRLSCAPSGSILRSYDMGWYRQAPGTERELVAAISSSGGSTYYADSVKGRFTISRDNAKNTVYLQMNSLKQEDTAVYYCAAATSRRFDYWGQGTQVTVSS | high polyreactivity
QVQLVESGGGLVQAGGSLRLSCAPSGSTFARNAMGWYRQAPGKERDLVAAIATSGGRTYYADTVKGRFTISRDIAKNTVYLQMNSLKAEDTAVYYCAAAFSLGMYWGQGTQVTVSS | high polyreactivity
QVQLVESGGGLVQAGGSLRLSCAPSGSTFPRNAMGWYRQAPGKERELVAAISYSGGRTYYADSVKGRFTISRDNAKNTVSLQMNSLKPEDTAVYYCAAQPWFTYYYWGQGTQVTVSS | high polyreactivity
QVQLVESGGGLVQAGGSLRLSCAPSGSTFQYNAMGWYRQAPGKEREFVAAISWRGGNTYYADSVKGRFTISRDNAKNTVYLQMNSLKPEDTAVYYCAAGRQRYAFKYYYWGQGTQVTVSS | high polyreactivity
QVQLVESGGGLVQAGGSLRLSCAPSGSTFYRYSMGWYRHAPGKERELVAAINGGDITNYADSVKGRFTISRDNAKNTVYLQMNSLKPEDTAVYYCAARYTYWGLLRYDYWGQGTQVTVSS | high polyreactivity
QVQLVESGGGLVQAGGSLRLSCAPSGYIFAPNAMGWYRQAPGKERELVAAITFSGGSTSYADSVKGRFTISRDNAKNTVYLQMNSLKPEDTAVYYCAAYWYSLYYLFPYDYWGQGTLVTVSS | low polyreactivity
QVQLVESGGGLVQAGGSLRLSCAPSGYIFPEYVMGWYRQSPGKERELVAVITWDGTSTYADSVKGRFTISRDNAKNTVYLQMNSLIPVDTAVYYCAADTNYYVDTAGYGDGLDSWGQGTQVTVSS | low polyreactivity
QVQLVESGGGLVQAGGSLRLSCAPSRRIFSIYALGSYRQAPGKESELVAAIRWSGGSTYYADSVKGRFTISRDKEKNTVYLQMNSLTPEDTAVYYCNRYYQSYYGWTGPYGYWGQGTQVTVSS | high polyreactivity
QVQLVESGGGLVQAGGSLRLSCAPSRSTFWRYAMGWYRQAPGKERELFARISWSAGSTYYADSVKGRFTISRDNAKNTVYLQMNRLKPEDSAVYYCAAQPYKYSGRYQSKPYLLLYDYWGQGTQVTVSS | high polyreactivity
QVQLVESGGGLVQAGGSLRLSCASSGFIFRHYAMGWYRQAPGKARELVAVINWSGSSTYYADSVKGRFTISRDNAKNTVYLQMNSLKPEDTAVYYCAVRSLRVDKYGYWGQGTQVTVSS | high polyreactivity
QVQLVESGGGLVQAGGSLRLSCASSGFNFVYYSMGRYRQAPGKEREFVAAITERGGSTDYADSVKGRFTISRDHAKNTVYFQMNSLKPEDTAVYYCIARDVTLWDDVYQQDGSGYWGQGTQVTVSS | low polyreactivity
